Data set [1] concerns the target T1, CtGEN1 (Chaetomium thermophilum? (printed C. …, UniProt G0RYN2 1-487)).
T1 sequence: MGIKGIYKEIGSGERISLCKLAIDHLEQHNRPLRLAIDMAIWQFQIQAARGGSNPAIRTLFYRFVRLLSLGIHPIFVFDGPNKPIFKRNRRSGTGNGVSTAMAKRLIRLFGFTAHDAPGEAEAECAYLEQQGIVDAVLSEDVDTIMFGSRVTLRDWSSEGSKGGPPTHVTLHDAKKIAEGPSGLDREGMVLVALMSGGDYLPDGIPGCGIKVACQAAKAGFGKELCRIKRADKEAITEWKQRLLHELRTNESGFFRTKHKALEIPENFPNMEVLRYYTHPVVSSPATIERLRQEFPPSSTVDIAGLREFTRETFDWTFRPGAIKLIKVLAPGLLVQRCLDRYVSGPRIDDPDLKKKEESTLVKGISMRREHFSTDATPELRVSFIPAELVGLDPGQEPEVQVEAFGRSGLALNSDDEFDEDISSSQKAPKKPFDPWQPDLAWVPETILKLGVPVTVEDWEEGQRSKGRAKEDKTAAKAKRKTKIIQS
As to the kind of experiment: crystal structure; Mg2+ (2 mM MgCl2); EMSA fitted to Hill equation, protein 2.1-43 nM (monomer); binding buffer and temperature not in material. Crystals: 100 mM HEPES pH 7.5, 2 mM MgCl2, 20% PEG10000, 7 C. Particulars: protein: recombinant; tags: C-terminal His6; r strand 1-14 paired with h 17-30 (14 bp); r 16-30 paired with x 1-15 (15 bp); mismatch r15/x16. (A gel shift assay detects complexes by their altered migration in electrophoresis.)

In data set [2] the target is T1, CtGEN1. The experiment in a line: crystal structure; Mn2+ (1 mM MnCl2 soak); EMSA fitted to Hill equation, protein 2.1-43 nM (monomer); binding buffer and temperature not in material. Crystals: 100 mM HEPES pH 7.5, 2 mM MgCl2, 20% PEG10000, 7 C. Particulars: protein: recombinant; tags: C-terminal His6; 14 bp with 3' overhang 1 nt on r strand.
Data set [3] has as its target T2, CtGEN1 E120A (Chaetomium thermophilum? (printed C. …, UniProt G0RYN2 1-487, E120A)).
T2 sequence: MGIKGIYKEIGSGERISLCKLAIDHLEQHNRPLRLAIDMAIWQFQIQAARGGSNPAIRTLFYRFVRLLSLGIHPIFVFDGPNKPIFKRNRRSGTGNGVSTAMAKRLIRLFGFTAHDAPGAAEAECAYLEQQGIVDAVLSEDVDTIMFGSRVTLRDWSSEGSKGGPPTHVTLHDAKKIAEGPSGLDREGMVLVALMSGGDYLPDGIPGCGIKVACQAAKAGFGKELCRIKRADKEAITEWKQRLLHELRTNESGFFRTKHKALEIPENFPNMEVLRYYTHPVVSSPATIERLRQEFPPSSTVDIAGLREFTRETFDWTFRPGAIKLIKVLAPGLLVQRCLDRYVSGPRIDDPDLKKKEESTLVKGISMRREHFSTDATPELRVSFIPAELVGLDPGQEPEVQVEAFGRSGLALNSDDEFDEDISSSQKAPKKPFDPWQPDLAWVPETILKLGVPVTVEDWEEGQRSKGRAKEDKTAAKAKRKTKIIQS
The experiment in a line: EMSA; EMSA fitted to Hill equation, protein 2.1-43 nM (monomer); binding buffer and temperature not in material. Crystals: 100 mM HEPES pH 7.5, 2 mM MgCl2, 20% PEG10000, 7 C. Particulars: protein: recombinant; tags: C-terminal His6; chain copies: 2; four-way junction of 4 strands (b/h/r/x).

The target in data set [4] is T3, CtGEN1 D143A (Chaetomium thermophilum? (printed C. …, UniProt G0RYN2 1-487, D143A)).
T3 sequence: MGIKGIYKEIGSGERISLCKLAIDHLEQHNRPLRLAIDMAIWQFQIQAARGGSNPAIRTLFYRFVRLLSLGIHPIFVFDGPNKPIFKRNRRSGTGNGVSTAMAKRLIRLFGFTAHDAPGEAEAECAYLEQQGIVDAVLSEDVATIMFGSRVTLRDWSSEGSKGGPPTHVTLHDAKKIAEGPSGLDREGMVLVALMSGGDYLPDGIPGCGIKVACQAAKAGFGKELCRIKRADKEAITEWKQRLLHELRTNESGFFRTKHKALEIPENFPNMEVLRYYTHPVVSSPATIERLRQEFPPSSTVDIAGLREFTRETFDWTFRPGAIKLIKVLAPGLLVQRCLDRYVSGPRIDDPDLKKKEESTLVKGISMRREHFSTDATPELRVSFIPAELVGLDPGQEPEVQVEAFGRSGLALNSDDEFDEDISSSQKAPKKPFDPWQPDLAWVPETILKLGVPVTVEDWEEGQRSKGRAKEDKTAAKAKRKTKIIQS
Described as above. Particulars: protein: recombinant; tags: C-terminal His6; chain copies: 2; four-way junction of 4 strands (b/h/r/x).

The target of data set [5] is T4, CtGEN1 D141A (Chaetomium thermophilum? (printed C. …, UniProt G0RYN2 1-487, D141A)).
T4 sequence: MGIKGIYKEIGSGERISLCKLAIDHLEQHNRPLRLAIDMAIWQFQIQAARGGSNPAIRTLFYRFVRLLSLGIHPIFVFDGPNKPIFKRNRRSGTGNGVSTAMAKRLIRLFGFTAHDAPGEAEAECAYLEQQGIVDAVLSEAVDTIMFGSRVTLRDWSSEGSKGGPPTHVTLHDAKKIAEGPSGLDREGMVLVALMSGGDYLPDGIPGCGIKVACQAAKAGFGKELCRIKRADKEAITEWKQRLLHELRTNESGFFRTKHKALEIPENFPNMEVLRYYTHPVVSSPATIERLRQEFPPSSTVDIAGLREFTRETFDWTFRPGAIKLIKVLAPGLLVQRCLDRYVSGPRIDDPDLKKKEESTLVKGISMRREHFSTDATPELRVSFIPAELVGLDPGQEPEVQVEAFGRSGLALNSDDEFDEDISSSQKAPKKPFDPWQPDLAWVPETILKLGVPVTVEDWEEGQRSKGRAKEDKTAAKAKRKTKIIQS
The data set is described as above. Particulars: protein: recombinant; tags: C-terminal His6; chain copies: 2; four-way junction of 4 strands (b/h/r/x).

In data set [6] the target is T5, CtGEN1 D38A (Chaetomium thermophilum? (printed C. …, UniProt G0RYN2 1-487, D38A)).
T5 sequence: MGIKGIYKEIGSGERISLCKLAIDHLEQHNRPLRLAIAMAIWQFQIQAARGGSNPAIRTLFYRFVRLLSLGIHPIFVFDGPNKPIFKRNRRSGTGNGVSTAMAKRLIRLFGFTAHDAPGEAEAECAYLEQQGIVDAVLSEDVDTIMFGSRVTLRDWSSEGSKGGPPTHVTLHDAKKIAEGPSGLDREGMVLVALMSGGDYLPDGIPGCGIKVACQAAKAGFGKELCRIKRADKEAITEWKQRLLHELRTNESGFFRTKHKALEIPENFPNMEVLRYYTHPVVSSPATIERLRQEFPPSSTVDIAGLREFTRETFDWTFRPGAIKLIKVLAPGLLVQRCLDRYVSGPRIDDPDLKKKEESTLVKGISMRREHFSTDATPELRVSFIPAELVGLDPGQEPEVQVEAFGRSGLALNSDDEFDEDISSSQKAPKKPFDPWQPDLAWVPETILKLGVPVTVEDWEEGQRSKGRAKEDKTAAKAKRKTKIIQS
Described as above. Particulars: protein: recombinant; tags: C-terminal His6; chain copies: 2; four-way junction of 4 strands (b/h/r/x).

In data set [7] the target is T6, CtGEN1 E122A (Chaetomium thermophilum? (printed C. …, UniProt G0RYN2 1-487, E122A)).
T6 sequence: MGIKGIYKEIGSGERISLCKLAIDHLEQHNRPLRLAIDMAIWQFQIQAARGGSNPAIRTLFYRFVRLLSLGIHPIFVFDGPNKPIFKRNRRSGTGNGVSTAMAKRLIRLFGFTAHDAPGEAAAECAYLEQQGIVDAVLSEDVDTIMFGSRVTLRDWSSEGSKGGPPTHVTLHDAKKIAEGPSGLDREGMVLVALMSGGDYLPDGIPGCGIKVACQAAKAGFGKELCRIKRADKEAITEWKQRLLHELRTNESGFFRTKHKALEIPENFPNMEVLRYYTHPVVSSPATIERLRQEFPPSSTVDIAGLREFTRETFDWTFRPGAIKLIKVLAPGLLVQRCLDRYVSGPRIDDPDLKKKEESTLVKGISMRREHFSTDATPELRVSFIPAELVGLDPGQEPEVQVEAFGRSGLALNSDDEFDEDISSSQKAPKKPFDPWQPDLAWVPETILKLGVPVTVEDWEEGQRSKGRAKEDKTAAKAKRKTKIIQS
Described as above. Particulars: protein: recombinant; tags: C-terminal His6; chain copies: 2; four-way junction of 4 strands (b/h/r/x).

Data set [8] concerns the target T7, CtGEN1 D79A (Chaetomium thermophilum? (printed C. …, UniProt G0RYN2 1-487, D79A)).
T7 sequence: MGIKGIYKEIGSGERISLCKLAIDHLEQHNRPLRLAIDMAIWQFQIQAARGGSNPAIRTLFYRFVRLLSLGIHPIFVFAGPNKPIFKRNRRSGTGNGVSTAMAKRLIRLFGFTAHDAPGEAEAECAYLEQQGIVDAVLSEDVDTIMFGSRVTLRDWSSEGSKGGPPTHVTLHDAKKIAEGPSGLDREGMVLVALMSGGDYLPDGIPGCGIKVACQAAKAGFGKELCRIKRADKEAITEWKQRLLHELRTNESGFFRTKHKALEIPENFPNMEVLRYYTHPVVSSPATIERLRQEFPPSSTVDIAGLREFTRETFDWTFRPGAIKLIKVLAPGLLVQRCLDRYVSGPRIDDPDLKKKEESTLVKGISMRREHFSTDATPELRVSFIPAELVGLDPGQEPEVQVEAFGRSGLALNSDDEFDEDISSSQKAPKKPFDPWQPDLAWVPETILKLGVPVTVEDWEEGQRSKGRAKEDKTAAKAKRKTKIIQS
Described as above. Particulars: protein: recombinant; tags: C-terminal His6; chain copies: 2; four-way junction of 4 strands (b/h/r/x).

The target in data set [9] is T1, CtGEN1. The data set is described as above. Particulars: protein: recombinant; tags: C-terminal His6; four-way junction of 4 strands (b/h/r/x).

B1: junction 3 resolution product (crystal) (structured_DNA)
DNA 1: TCCAACCACCGCTCAACTCAACTGCAGTCT
DNA 2: GAGCGGTGGTTGGA
DNA 3: AGACTGCAGTTGAGTC
modifications: 5'-phosphate at cleaved 5' end of h strand product
Regarding B1, in data set [1], the binding result is reported as “binds”.

B2: R-stem duplex as modeled in 5CNQ (dsDNA)
DNA 1: TCCAACCACCGCTCA
DNA 2: GAGCGGTGGTTGGA
modifications: 5'-phosphate at cleaved 5' end of h strand product
Consider B2, for which the binding result in [2] is “binds”.

B3: four-way junction 3 (50 nt strands) (structured_DNA)
DNA 1: GGCTAAGGGATCCGTCCTAGCAAGGGGCTGCTACCGGAGGCTTACATCGG
DNA 2: CCGATGTAAGCCTCCGGTAGCAGCCTGAGCGGTGGTTGGATGTTGACTGC
DNA 3: GCAGTCAACATCCAACCACCGCTCAACTCAACTGCAGTCTAGATGGACTG
DNA 4: CAGTCCATCTAGACTGCAGTTGAGTCCTTGCTAGGACGGATCCCTTAGCC
By Kd is commonly meant the concentration at which binding is half-saturated. Consider B3, for which the Kd in data set [3] was 6.5 ± 0.1 nM; in data set [4], 7.1 ± 0.01 nM; in data set [5], 10 ± 0.01 nM; in data set [6], 6.2 ± 0.05 nM; in [7], 4.6 ± 0.04 nM; in data set [8], 5.9 ± 0.05 nM. The Kd in data set [9] was 7.7 ± 0.01 nM.

For the origin of these results see paper PMC4695337, “Crystal Structure of a Eukaryotic GEN1 Resolving Enzyme Bound to DNA”.
